These results are taken from patent US20150140001A1 (Scripps Research, published 2015).

Changes are numbered by the printed parent chain.

Test [1] concerns the target T1, recombinant mouse clec14a CTLD Fc fusion protein (mCTLD-Fc) (mouse; human, UniProt Q8VCP9 31-172).
T1 construct: also called mouse CTLD-Fc; not shown: hinge and CH2-CH3 domain of human IgG1, encoded 3' of the cloning site of the modified pCEP4 vector
T1 sequence: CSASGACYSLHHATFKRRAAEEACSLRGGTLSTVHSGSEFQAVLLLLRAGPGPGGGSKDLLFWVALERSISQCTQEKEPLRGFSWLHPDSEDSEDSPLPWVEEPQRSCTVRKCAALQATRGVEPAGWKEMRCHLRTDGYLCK
The experiment in a line: ELISA, coated mCTLD-Fc (25 nM), 67 nM IgG. The procedure: (§1) 25 nM recombinant hCTLD-Fc, mCTLD-Fc, or Fc fragment of IgG1 in PBS was added to the 96-wells of a microtiter plate. After incubation overnight at 37° C., plates were washed three times with PBS containing 0.05% (v/v) Tween 20 (PBST), and incubated with 3% (w/v) BSA in PBST for 1 hr at 37° C. Plates were then incubated with 67 nM clec14a-CTLD IgG in PBST containing 3% (w/v) BSA for 3 hr at 37° C. Plates were washed twice with PBST and incubated with horseradish […] (HRP)-conjugated anti-human lambda light chain antibody (Bethyl Laboratories, Montgomery, Tex., USA) diluted 1:1000) in PBST containing 3% (w/v) BSA, for 1 hr at 37° C.
(In an ELISA, binding on a coated surface is turned into a signal by an enzyme label.)

Test [2] deals with T2, fusion protein comprising an amino acid fragment from 1st amino acid to 42nd amino acid in hCTLD (human, UniProt Q86T13 31-72).
T2 construct: also called N-terminal fragment of hCTLD-Fc (1-42); not shown: Fc
T2 chain: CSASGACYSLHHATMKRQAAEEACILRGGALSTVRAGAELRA
The experiment in a line: epitope mapping ELISA, coated fragment-Fc 10 µg/ml, IgG 10 µg/ml. How it is done:
Each of 10 μg/ml hCTLD-Fc, Fc, or N-terminal or C-terminal fragments of hCTLD-Fc in PBS was added to 96-well plates. Plates were incubated overnight at 37° C., washed three times with PBS containing 0.05% (v/v) Tween 20 (PBST), and incubated with 3% (w/v) BSA in PBST for 1 hr at 37° C. Plates were incubated with 10 μg/ml clec14a-CTLD IgG in PBST containing 3% (w/v) BSA for 2 hr at 37° C. Following two times washings with PBST, horseradish […] (HRP)-conjugated anti-human lambda light chain antibody (1:1000; Bethyl Laboratories, TX, USA) in PBST containing 3% (w/v) BSA was incubated for 1 hr at 37° C.
For fine mapping of epitope, specificity of clec14a-CTLD IgGs to Clec14awtCTLD and the fragments of hCTLD-Fc (FIG. 10a) were tested by ELISA.

The target of test [3] is T1, recombinant mouse clec14a CTLD Fc …. The experiment in a line: phage enzyme immunoassay (phage ELISA) on mCTLD-Fc. The procedure: (§2) A human synthetic scFv antibody library was precleared of Fc binders and screened by alternative biopanning with recombinant hCTLD-Fc or mCTLD-Fc. b-d. Ninety-six phage clones (1-96) displaying scFv were randomly selected and the supernatants were analyzed by phage ELISA. Reactivity of the selected scFv clones to human and mouse CTLDs was assayed by measuring absorbance at 450 nm. Arrows indicate scFv clones reactive to hCTLD-Fc (▪, black) and mCTLD-Fc (▪, grey), and not reactive to Fc (□). BSA ( ) served as a background control.
(§3) Three rounds of biopanning were carried out with immunotubes (Immuno™ tube maxisorp, Nunc, Rochester, N.Y., USA) or magnetic beads (Dynabeads M-270 epoxy, Invitrogen) coated with 4 μg recombinant human (hCTLD-Fc) or mouse (mCTLD-Fc) fusion protein to select clones with cross-species reactivity, as described previously (Barbas C F. Phage display: a laboratory manual. Cold Spring Harbor, N.Y.: Cold Spring Harbor Laboratory Press; 2001; Vestweber D. Lymphocyte trafficking through blood and lymphatic vessels: more than just selectins, chemokines and integrins. European Journal of Immunology. 2003; 33(5):1361-4). Ninety-six phage clones were randomly selected from colonies grown on output plates and tested for reactivity to human and mouse CTLDs by phage enzyme immunoassay. DNA of the final scFv clones was sequenced and classified as four scFv clones identified having different complementarity determining region sequences.

The target in test [4] is T3, recombinant human clec14a CTLD Fc fusion protein (hCTLD-Fc) (human, UniProt Q86T13 31-172).
T3 construct: also called human CTLD-Fc; wtCTLD-Fc; not shown: hinge and CH2-CH3 domain of human IgG1, encoded 3' of the cloning site of the modified pCEP4 vector
T3 sequence: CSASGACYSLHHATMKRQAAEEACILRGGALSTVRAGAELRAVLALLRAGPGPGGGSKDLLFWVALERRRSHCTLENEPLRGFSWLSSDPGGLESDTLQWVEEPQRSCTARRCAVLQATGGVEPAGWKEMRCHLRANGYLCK
The experiment in a line: phage enzyme immunoassay (phage ELISA) on hCTLD-Fc. How it is done:
as §2
as §3, with “DNA of the final scFv clones was sequenced and classified as four scFv clones identified having different complementarity determining region sequences.” left out

The target in test [5] is T3, recombinant human clec14a CTLD Fc …. Kind of test: ELISA, coated hCTLD-Fc (25 nM), 67 nM IgG. The procedure: as §1

B1: clec14a-CTLD IgG clone 1 (antibody, V domains shown)
VH: EVQLLESGGGLVQPGGSLRLSCAASGFTFSGYDMSWVRQAPGKGLEWVSGIYPDGGNTYYADSVKGRFTISRDNSKNTLYLQMNSLRAEDTAVYYCARGATWWVLGPFDYWGQGTLVTVSS
VL: QSVLTQPPSASGTPGQRVTISCTGSSSNIGNNSVTWYQQLPGTAPKLLIYADSHRPSGVPDRFSGSKSGTSASLAISGLRSEDEADYYCGAWDDSLSGYVFGGGTKLTVL
notes: scFv converted to IgG; Lambda light chain, detected with anti-human lambda antibody
In the case of B1, the binding result in test [1] and in test [2] was “binds” throughout.

B2: scFv clone 2 (phage-displayed) (scFv, V domains shown)
VH: EVQLLESGGGLVQPGGSLRLSCAASGFTFSSYDMSWVRQAPGKGLEWVSVISPDSSSTYYADSVKGRFTISRDNSKNTLHLQMNSLRAEDTAVYYCARHTGWQSRPHTYYDYGMDVWGQGTLVTVSS
VL: B1 VL with T23S, S33A, A51S, S53N, A91T, D94A
On to B2, for which the binding result in test [3] is reported as “binds”.

B3: clec14a-CTLD IgG clone 2 (antibody, V domains shown)
VH: B2 VH
VL: B1 VL with T23S, S33A, A51S, S53N, A91T, D94A
notes: Lambda light chain
As to B3, the binding result in test [1] and in test [2] was “binds” in each case.

B4: scFv clone 3 (phage-displayed) (scFv, V domains shown)
VH: EVQLLESGGGLVQPGGSLRLSCAASGFTFSDYYMSWVRQAPGKGLEWVSLISYDGGSTYYADSVKGRFTISRDNSKNTLYLQMNSLRAEDTAVYYCARSNDWFDYWGQGTLVTVSS
VL: B1 VL with T23S, N31S, S33N, T35Y, A51Y, H54Q, G98A
For the molecule B4, the binding result in test [4] and in test [3] was “binds” each time.

B5: scFv clone 1 (phage-displayed) (scFv, V domains shown)
VH: B1 VH
VL: B1 VL
With B5, the binding result in test [3] was “binds”.

B6: clec14a-CTLD IgG clone 3 (antibody, V domains shown)
VH: B4 VH
VL: B1 VL with T23S, N31S, S33N, T35Y, A51Y, H54Q, G98A
notes: Lambda light chain
As to B6, the binding result in test [5] and in test [1] was “binds” throughout.
